This note sets out measurements from article PMC10095184.

Series [1] relates to NS5-6xHis BTV-1 (Bluetongue virus 1). The experiment in a line: pull-down RT-qPCR.
The test system of series [2] is NS5-6xHis AHSV-4 (African horse sickness virus 4). The series can be described thus: pull-down RT-qPCR.

On to BTV-1 Seg-1 mRNA, for which, in series [1], the binding signal (Ct (ctrl 14.81)) was 10.8 and the binding signal (Ct (ctrl 18.09)) came out at 10.9. For the same substance, in series [2], the binding signal (Ct (ctrl 14.81)) was found to be 11.3 and the binding signal (Ct (ctrl 18.09)) came out at 11.6.
In series [1], BTV-1 Seg-3 mRNA gave a binding signal (Ct (ctrl 19.32)) of 11.2 and a binding signal (Ct (ctrl 19.87)) of 11.5. Besides, in series [2], the binding signal (Ct (ctrl 19.32)) is 11.9 and the binding signal (Ct (ctrl 19.87)) was 11.8.
Consider BTV-1 Seg-7 mRNA, for which the binding signal (Ct (ctrl 16.17)) in series [1] turned out to be 11.1; in series [2], 11.8. Besides, the binding signal (Ct (ctrl 16.39)) in series [1] was 10.2; in series [2], 10.9.
